The record followed here is the RNAGym collection of RNA variant scans (doi:10.7554/elife.90254).

B1: OR4K15 (parent)
chain: GUUAACGGUCAUAGGCCAUGGAAACUAGGAGCACCAUUUCGCUGCCAGUGAAGAAAUGAACAAAGAAAAUCUGGGCCAGGCAGGCAUCAAAAGAAAUAGUCUUGCGCUCAACCAGAAAGUCUGUAAUCAUUUUAAGGGUA

This series covers variants of B1. Briefly: self-cleavage, relative activity (ratio to wild type); higher = more cleavage; in vitro, sequencing; the parent is a self-cleaving ribozyme.
As to G73A U122C, the self-cleavage stood at 0.04. With A59U A110G the figure was 0.08. Under U130C stands 0.76; under A11G A51U, 0.82.

For A55G U120A, the self-cleavage worked out at 1.67. With G15A U120A the figure was 1.72. For the variant A11U A51G, the self-cleavage came to 1.48. For the variant U19A A116G, the self-cleavage turned out to be 1.24. With G20A A52U the figure was 1.8. With A27G A36U the figure was 0.85; with A18C U39A, 1.48. With U57C the figure was 0.86; with U9A U43C, 1.25; with A63G U131A, 0.45. Turning to A68U A125C, the self-cleavage was found to be 1.36. On to A68U A111G, for which the self-cleavage amounted to 0.02. Turning to A62G U108C, the self-cleavage worked out at 0.02. Consider U19G A51U, for which the self-cleavage came out at 1.46. Under G53A U102A stands 0.68. Turning to A4G C88G, the self-cleavage came to 1.46. Take A78U U124C: the self-cleavage came out at 0.26. Take A94G U108A: the self-cleavage was 0.01. In the case of A96U U130C, the self-cleavage came out at 1.13. Take A63G C109U: the self-cleavage is 0.69. On to A114U U122C, for which the self-cleavage was determined as 0.04. With A11C A110U the figure was 1.76. Under A13G stands 0.79. Under A59G A86G stands 0.5; under A59G A86U, 1.71; under U2C A89U, 1.7. Consider U57G G137C, for which the self-cleavage was determined as 1.71. Under A60G G123A stands 1.05; under A59G U122A, 1.38; under A68U U100C, 2.4. With U3G A52G the figure was 0.67. With U57C U87A the figure was 0.98. Consider U37C U130C, for which the self-cleavage is 0.97. Under U19A U26A stands 1.58. Turning to U43A U72C, the self-cleavage was found to be 0.27. Take A36U A67U: the self-cleavage turned out to be 1.55. On to A96U U132G, for which the self-cleavage came out at 1.55. As for A18G U102A, the self-cleavage was found to be 1.13. With A5G U97A the figure was 1.57; with A22G A23U, 1.26. With G79U A96G the figure was 0.1; with G29A U108C, 0.03. As for U38C U57A, the self-cleavage is 1.48. With U3A A66G the figure was 1.1. With A33G A78U the figure was 0.14; with A47C A96G, 1.82; with A91C, 1.53. With A33U G41A the figure was 1.52; with A36G A62U, 2.06; with U9C G31A, 1.12. For the variant G7A A96U, the self-cleavage worked out at 1.83. Under A117G A126C stands 1.79; under G21A A86U, 2.01.

As for C34U U49C, the self-cleavage worked out at 1.17. With A18U U43C the figure was 1.42.

Take A13G A67C: the self-cleavage stood at 0.22. With A92G U132A the figure was 1.23; with A62U U102A, 0.57; with C42U U103A, 1.01. Under A13G G65A stands 1.2. Under U108A A118G stands 0; under G7A A63G, 1.86. Take C25U A86G: the self-cleavage worked out at 1.2. With A52U A66G the figure was 1.8. In the case of U2G U38A, the self-cleavage was 1.08. Under A89U A126U stands 0.65. Under A33G A116C stands 0.14.

A33G A116U: the self-cleavage is 0.21. Under U9C A110C stands 0.45; under A11G A62G, 1.11; under A60G U124C, 0.63. Under A89U A92G stands 2.32. Under G123U G136A stands 2.35; under G79U U100C, 0.03. On to A13G G93U, for which the self-cleavage was found to be 0.86.

As for C85U U108G, the self-cleavage was 0.01.

As for A55G U130C, the self-cleavage was found to be 0.96.

For the variant A5C U102C, the self-cleavage turned out to be 0.96. As for A60C U100A, the self-cleavage was 0.68. As to A111G C128A, the self-cleavage turned out to be 0.01.

In the case of A94U U103C, the self-cleavage came out at 0.46. Under A4G A67G stands 1.16. With A4G A129G the figure was 0.78; with G21A U72C, 0.3. With A24G A96U the figure was 0.93; with A54G U102A, 0.17; with A22U A92U, 2.17. A18G U132C: the self-cleavage was 0.77. With A51G A91C the figure was 1.97; with A56G A116U, 0.56. As to A24U A96G, the self-cleavage worked out at 0.87. Under A69G U108A stands 0.02; under A78U G115U, 0.03. U2C A33C: the self-cleavage was 0.88. As for G53C, the self-cleavage stood at 1.74. With A51C A59G the figure was 1.73. With C16U A94U the figure was 1.89. Turning to A22G G28A, the self-cleavage is 1.28.

Consider A22G G28C, for which the self-cleavage amounted to 1.42. For A22G C112A, the self-cleavage stood at 0.05. On to U26A A78G, for which the self-cleavage was found to be 0.17. On to A63G A135G, for which the self-cleavage came to 1.35.

Regarding A22U A59G, the self-cleavage amounted to 1.48. In the case of C107U A134G, the self-cleavage was found to be 0.03. Under A11G U70G stands 0.6.

In the case of G8C A52C, the self-cleavage turned out to be 2.89. With G80A U130C, the self-cleavage was 0.08.

Turning to A13U A30G, the self-cleavage turned out to be 1.26.

A69G U132C: the self-cleavage worked out at 1.56. Turning to A62G A116U, the self-cleavage came to 0.35.

A91G U133C: the self-cleavage was determined as 1.1. Turning to A78G C88A, the self-cleavage was found to be 0.17. In the case of A55G G123A, the self-cleavage was determined as 1.61.

On to G48U A91G, for which the self-cleavage was 1. On to U9C A98G, for which the self-cleavage was found to be 0.22. Regarding U39C C45A, the self-cleavage turned out to be 0.46.

On to G106C, for which the self-cleavage turned out to be 0.01. For the variant C77A U122C, the self-cleavage is 0.6.

A18U A140G: the self-cleavage came to 1.49. Consider G75A U97C, for which the self-cleavage came out at 0.15. Turning to A23G A69U, the self-cleavage stood at 1.12. With A36G G41A the figure was 2.26; with U124A U132G, 0.61. Take U3C C109G: the self-cleavage was 0.04. Under C35U A64G stands 1. Under A56G C109A stands 0.34; under A92G A95U, 1.8; under A51G A63G, 1.17. Under A24G A30C stands 1.22; under U3G A30G, 1.12.

For the variant C81U U108A, the self-cleavage was 0.02. For the variant A36G A98G, the self-cleavage worked out at 1.54. Consider A69G A98U, for which the self-cleavage amounted to 1.35. As for U39A A117U, the self-cleavage came to 1.81.

As to U72C C105U, the self-cleavage came out at 0.03. Take U2C A68G: the self-cleavage came out at 1.13. For A89C A117U, the self-cleavage amounted to 0.98.

As for A68G U72C, the self-cleavage worked out at 0.29. Turning to U39A U130C, the self-cleavage amounted to 1.09. With C109U C128A the figure was 0.12; with C17U A23G, 1.37.

On to A5G C101A, for which the self-cleavage worked out at 0.25.

On to U39C U133C, for which the self-cleavage came out at 2.27. As for U37C U102C, the self-cleavage is 1.49. Under G80U A91G stands 0.11. As for A23U U70C, the self-cleavage is 0.83. With A60G U70A the figure was 1.3.

Take A117G U122A: the self-cleavage was determined as 2.35. As to A22U A82U, the self-cleavage was 0.32. With A18G U43A the figure was 1.23; with G53A A54U, 1.67.

In the case of A66G A129G, the self-cleavage stood at 0.85. For the variant A52G A129U, the self-cleavage came out at 0.71. Under U102C A116U stands 0.23. Under A52G U120C stands 1.16; under U37A A98G, 1.07; under U19C A56G, 1.29. With A114C the figure was 0.04.

For A111G U132C, the self-cleavage stood at 0.03.

Turning to U37C U39C, the self-cleavage is 1.72. Under A11G A24C stands 1.51; under A13G A27G, 1.15; under A47U U130C, 0.43.
